Numbering of substitutions follows the chain as printed.

This note sets out measurements from patent publication US20180327501A1 (CARSGEN THERAPEUTICS, published 2018).

The chains are these.
B1: single chain antibody Y022 displayed on phage (scFv)
scFv: DIQMTQSPSSLSASVGDRVTITCHASQDINVNIGWLQQKPGKAFKGLIYHGKNLEDGVPSRFSGSGSGTDFTLTISSLQPEDFATYYCNQYENIPLTFGQGTKVEIKRGGGGSGGGGSGGGGSDVQLVESGGGLVQPGGSLRLSCAVSGYSITSDYAWNWIRQAPGKGLEWLGYISYRGRTQYNPSLKSRISITRDNSKNTFFLQLNSLRAEDTAVYYCARMGKNWDYWGQGTLVTVSS
notes: 12 mutations against 7B3; not shown: fusion to M13 phage coat protein from phagemid pCANTAB 5E (pCantab 5E-Y022)
B2: M14/CD3 single chain bifunctional antibody (bispecific antibody, part only; not given: linker, anti-CD3 scFv, His tag, not shown: another chain or arm of the molecule)
chain: B1 scFv with V31S, I94N, L96I, Q182N, M222L, K224R, N225G, W226F, D227R
B3: S22/CD3 single chain bifunctional antibody (bispecific antibody, part only; not given: linker, anti-CD3 scFv, His tag, not shown: another chain or arm of the molecule)
chain: B1 scFv with K52T, I94N, Q182R, M222L, K224R, N225G, W226F, D227R
B4: M26/CD3 single chain bifunctional antibody (bispecific antibody, part only; not given: linker, anti-CD3 scFv, His tag, not shown: another chain or arm of the molecule)
chain: B1 scFv with M222L, K224R, N225G, W226F, D227R
B5: S7/CD3 single chain bifunctional antibody (bispecific antibody, part only; not given: linker, anti-CD3 scFv, His tag, not shown: another chain or arm of the molecule)
chain: B1 scFv with K52T, I94N, L96I, Q182S, M222L, K224R, N225G, W226F, D227R
B6: M25/CD3 single chain bifunctional antibody (bispecific antibody, part only; not given: linker, anti-CD3 scFv, His tag, not shown: another chain or arm of the molecule)
chain: B1 scFv with Q182R, M222L, K224R, N225G, W226F, D227R
B7: S29/CD3 single chain bifunctional antibody (bispecific antibody, part only; not given: linker, anti-CD3 scFv, His tag, not shown: another chain or arm of the molecule)
chain: B1 scFv with I94F, Q182R, M222L, K224R, N225G, W226F, D227R
B8: S17/CD3 single chain bifunctional antibody (bispecific antibody, part only; not given: linker, anti-CD3 scFv, His tag, not shown: another chain or arm of the molecule)
chain: B1 scFv with V31T, I94N, M222L, K224R, N225G, W226F, D227R
B9: S23/CD3 single chain bifunctional antibody (bispecific antibody, part only; not given: linker, anti-CD3 scFv, His tag, not shown: another chain or arm of the molecule)
chain: B1 scFv with A43S, I94N, Q182R, M222L, K224R, N225G, W226F, D227R
B10: M15/CD3 single chain bifunctional antibody (bispecific antibody, part only; not given: linker, anti-CD3 scFv, His tag, not shown: another chain or arm of the molecule)
chain: B1 scFv with I94N, L96I, Q182S, M222L, K224R, N225G, W226F, D227R
B11: S8/CD3 single chain bifunctional antibody (bispecific antibody, part only; not given: linker, anti-CD3 scFv, His tag, not shown: another chain or arm of the molecule)
chain: B1 scFv with A43S, I94N, L96I, Q182S, M222L, K224R, N225G, W226F, D227R
B12: scFv-Y022-Fc (Fc fusion)
chain: B1 scFv
notes: Expressed in HEK-293F cells, protein A purified; also called single chain antibody Y022; V5-scFv-Y022-Fc; not shown: Fc fragment of human IgG1 from vector pCMV-V5-Fc, fused downstream of the multiple cloning site; limits and junction res
B13: antibody 7B3, single chain antibody with carboxy-terminal 6xhistidine, produced in E. coli (scFv)
scFv: DIQMTQSPSSLSASVGDRVTITCHASQDINSNIGWLQQKPGKAFKGLIYHGKNLEDGVPSRFSGSGSGTDFTLTISSLQPEDFATYYCVQYAQFPYTFGQGTKVEIKRGGGGSGGGGSGGGGSDVQLVESGGGLVQPGGSLRLSCAVSGYSITSDYAWNWIRQAPGKGLEWLGYISYRGRTSYNPSLKSRISITRDNSKNTFFLQLNSLRAEDTAVYYCARLGRGFRYWGQGTLVTVSSHHHHHH
B14: antibody Y022, single chain antibody with carboxy-terminal 6xhistidine, produced in E. coli (scFv)
scFv: DIQMTQSPSSLSASVGDRVTITCHASQDINVNIGWLQQKPGKAFKGLIYHGKNLEDGVPSRFSGSGSGTDFTLTISSLQPEDFATYYCNQYENIPLTFGQGTKVEIKRGGGGSGGGGSGGGGSDVQLVESGGGLVQPGGSLRLSCAVSGYSITSDYAWNWIRQAPGKGLEWLGYISYRGRTQYNPSLKSRISITRDNSKNTFFLQLNSLRAEDTAVYYCARMGKNWDYWGQGTLVTVSSHHHHHH

T1 sequence (P69168 19-235 limits assumed): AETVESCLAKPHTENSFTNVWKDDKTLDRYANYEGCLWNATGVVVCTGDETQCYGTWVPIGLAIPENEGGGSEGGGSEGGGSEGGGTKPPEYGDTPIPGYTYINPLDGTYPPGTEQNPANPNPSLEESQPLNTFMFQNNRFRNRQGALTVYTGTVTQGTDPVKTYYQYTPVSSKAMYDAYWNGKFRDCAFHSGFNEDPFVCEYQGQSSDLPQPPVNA

One experiment addresses T1, N1N2 (control protein) (M13 phage, UniProt P69168 19-235, limits assumed).
T1 construct: domain: N1N2 domain; Negative control protein in the phage ELISA
Put plainly: single phage ELISA, 100 ng/well coated protein. The protocol:
(§1) Each well was blocked with PBST containing 2% BSA (w/v). The wells were then washed with PBST for three times. Then, each phage solution prepared above was added to each well of the plate at 100 μl/well. After incubation for 2 hours at 37° C., it was washed for three times with PBST. To detect bound phage, anti-M13 antibody […] conjugate (purchased from GE Healthcare) was diluted at 1:5000 in PBST and 100 μl was added to each well. After incubating at 37° C. for 1 hour, the wells were rinsed for three times with PBST and then rinsed for three times with PBS. Finally, 50 μl of TMB substrate was added into the wells and developed for 10 minutes at room temperature, followed by addition of 50 μl of 2M H₂SO₄ per well to stop the color reaction. Extinction values were measured at 450 nm with an enzyme-linked immunosorbent (Bio-Rad).
(§2) All of the altered amino acid positions include S31 in the light chain CDR1 region, V89, A92, Q93, F94 and Y96 in the light chain CDR3 region, 5182 in the heavy chain CDR2 region, L222, R224, G225, F226 and R227 in the heavy chain CDR3 region.
B1: the binding result is reported as “no binding”.

The target of another experiment is T2, BSA (bovine serum albumin) (bovine, UniProt P02769 25-607).
T2 construct: Negative control protein in the phage ELISA
T2 sequence (P02769 25-607 limits assumed): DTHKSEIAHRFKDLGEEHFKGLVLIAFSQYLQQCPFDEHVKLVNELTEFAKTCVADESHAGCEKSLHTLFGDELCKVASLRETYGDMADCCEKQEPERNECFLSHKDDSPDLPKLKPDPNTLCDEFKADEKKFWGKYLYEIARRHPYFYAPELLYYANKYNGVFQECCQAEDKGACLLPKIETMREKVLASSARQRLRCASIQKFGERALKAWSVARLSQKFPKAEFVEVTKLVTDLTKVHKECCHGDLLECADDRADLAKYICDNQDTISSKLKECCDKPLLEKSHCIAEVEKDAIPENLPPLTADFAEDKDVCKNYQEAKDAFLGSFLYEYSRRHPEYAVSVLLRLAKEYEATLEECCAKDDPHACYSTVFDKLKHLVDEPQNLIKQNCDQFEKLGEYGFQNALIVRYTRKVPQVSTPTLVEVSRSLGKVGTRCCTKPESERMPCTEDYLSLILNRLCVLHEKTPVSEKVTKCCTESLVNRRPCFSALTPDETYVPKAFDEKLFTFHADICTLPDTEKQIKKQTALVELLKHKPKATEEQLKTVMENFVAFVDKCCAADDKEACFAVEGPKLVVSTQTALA
As to the kind of experiment: single phage ELISA, 100 ng/well coated protein. The protocol:
as §1, §2
(In general: An ELISA detects its analyte on a solid surface through an enzyme-linked reagent.)
As to B1, the binding result is given as “no binding”.

A further experiment has as its target T3, EGFRvIII on U87-EGFRvIII cells (human, UniProt P00533 25-1210).
T3 construct: whole, on cells; EGFRvIII is a deletion variant of it; also called U87MG-EGFRvIII; mutant human EGFR
As to the kind of experiment: FACS on U87MG-EGFRvIII cells, method of Example 9; PBS control 1.
Consider B2, for which the mean fluorescence intensity (MFI) is 36.5. Still for that read-out and setting: the figure for B3 is 31.3. As to B4, the mean fluorescence intensity (MFI) was found to be 41.4.

B5 gave a mean fluorescence intensity (MFI) of 42.2. B6 displayed a mean fluorescence intensity (MFI) of 36.5. On the same count and under the same terms, the result for B7 reads 34.6; that for B8, 31.6; that for B9, 32.2. On to B10, for which the mean fluorescence intensity (MFI) came to 37.9. Still for that read-out and setting: the result for B11 reads 38.5.

In another experiment the target is T3, EGFRvIII on U87-EGFRvIII cells. Put plainly: FACS on U87-EGFRvIII cells, 20 µg/ml. The protocol: 2) Cells were digested with 10 mM EDTA and cells were collected by centrifugation at 200 g for 5 min. Cells were resuspended in 1% phosphate buffered saline (NBS PBS) containing calf serum at a concentration of 1×10⁶ to 1×10⁷/mL, and added in a flow tube in an amount of 100 μl/tube.
And PBS was used as a negative control. The final concentration of antibody was 20 μg/ml, 100 μl was added to each tube and placed in an ice bath for 45 minutes.
For the molecule B12, the binding result is listed as “binds”.

In the next experiment the target is EGFR on the cell surface (human) (UniProt P00533). Put plainly: FACS on CAL 27 cells, method of Example 9; PBS control 3.11.
On to B2, for which the mean fluorescence intensity (MFI) stood at 28.4. On to B3, for which the mean fluorescence intensity (MFI) amounted to 24.6.

Turning to B4, the mean fluorescence intensity (MFI) was determined as 24.6. Still for that read-out and setting: the figure for B5 is 27.9.

Molecule B6 came in with a mean fluorescence intensity (MFI) of 24.1. Still for that read-out and setting: the figure for B7 is 25.7; for B8 it is 25; for B9 it is 29.7. Still for that read-out and setting: the figure for B10 is 29.4; for B11 it is 30.

The target of another experiment is T4, antigen EGFRvIII (purchased protein) (UniProt P00533 25-645, limits assumed).
T4 construct: also called EGFRvIII antigen; biotin-labeled antigen EGFRvIII
As to the kind of experiment: concentration gradient ELISA, EGFRvIII coated 200 ng/well, anti-His-tag detection, non-linear fit.
Description: Binding activity of an antibody to antigen EGFRvIII was determined by concentration gradient ELISA assay. For this purpose, the antigen EGFRvIII was diluted with 0.1 M NaHCO₃ (pH 9.6) coating solution and each well was coated with 200 ng at 50 μl/well overnight at 4° C. and blocked with PBST containing 2% (w/v) BSA for 2 hours at room temperature. The plate was then rinsed for three times with PBST. […] After incubation for 2 hours at 37° C., plate was rinsed for three times with PBST followed by adding 100 μl/well of a 1:2000 dilution of mouse anti-His-tag antibody (available from Santa cruz) for 1 hour at 37° C. To test the bound antibody, HRP-labeled goat anti-mouse antibody (purchased from Santa Cruz) was diluted in PBST at a 1:15,000 dilution and 100 μl per well was added and incubated at 37° C. for 1 hour. […] The chromogenic reaction was stopped with 50 μl of 2 M H₂SO₄ per well and extinction value was measured at 450 nm using enzyme-linked immunoassay (Bio-Rad). The absorbance values obtained were evaluated using Sigma Plot software and the binding strength of an antibody was calculated. For this purpose, the extinction value measured in each case was plotted against the corresponding antibody concentration and the resulting curve was fitted using the following non-linear regression.
On to B13, for which the Kd (as a rule, the concentration at which binding is half-saturated) is around 22.4 nM. The same measure, in the same setting: the figure for B14 is around 2.7 nM.
